The source of these data is PMC6318328, “Structural insights into trans-histone regulation of H3K4 methylation by unique histone H4 binding of MLL3/4” (Nature Communications, 2019).

Data set [1] has as its system recombinant nucleosomes (histone H3K4). As to the kind of experiment: In vitro histone methyltransferase (HMT) assay of MLL3/MLL4 constructs. Format: biochemical. The note with it: recombinant nucleosomes 0.5 μg, 2.5 μCi [3H]-SAM, 30 °C, 16 h, autoradiography (Fig. 3b, c). The procedure: Mammalian expression plasmids encoding different fusions of MLL3 PHD and SET domains were subcloned into the pFLAG-CMV2 vector (Sigma-Aldrich, E7033) and were transiently expressed in HEK 293T cells (ATCC® ACS-4500™) by using Lipofectamine 2000 (ThermoFisher Scientific, 11668027) according to manufacturer’s protocol. Two days after transfection, cells were harvested and then lysed by mammalian lysis buffer (20 mM Tris-HCl, 137 mM NaCl, 1.5 mM MgCl2, 1 mM EDTA, 10% glycerol, 1% Triton X-100, 0.2 mM PMSF, 1 μg mL^−1 aprotinin, 2.5 μg mL^−1 leupeptin, and 1 μg mL^−1 pepstatin at pH 8.0). FLAG immunoprecipitation (FLAG IP) was performed in a similar way as described previously. In brief, total cell lysates were incubated with anti-FLAG M2 Affinity Gel (Sigma-Aldrich, A2220) in 4 °C for 5 h and were extensively washed with BC500 (20 mM Tris-HCl, 500 mM KCl, 1.5 mM MgCl2, 0.2 mM EDTA, 10% glycerol, 0.2 mM PMSF at pH 8.0). […]
HMT assay was performed according to a previously described method with minor modifications. […] The signals for HMT activity were detected by autoradiography. The input of the MLL3/4 proteins and nucleosomes were detected by mouse monoclonal anti-FLAG M2 (Sigma-Aldrich, F3165, 1:1000) and rabbit polyclonal anti-H3 antibody (Abcam, ab1791, 1:1000), respectively. […]

The next data set addresses T1, MLL3_(ePHD6)1055–1144 (Homo sapiens, UniProt Q8NEZ4).
T1 construct: MLL3_ePHD6, residues 1055–1144 and residues 1075–1144; GST (N, cleaved yes); His (N, cleaved yes); made in house; host or cells: E. coli BL21 (DE3) Codon plus RIL
T1 sequence (Q8NEZ4 1055-1144): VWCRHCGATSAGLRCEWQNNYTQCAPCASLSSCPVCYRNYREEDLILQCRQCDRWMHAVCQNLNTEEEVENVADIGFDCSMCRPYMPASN
As to the kind of experiment: ITC binding of histone peptides to MLL3 ePHD6 (1055–1144). Details: key to ITC titration, Kd / Kd: NB: no detectable binding. The note with it: for Kd / binding to ePHD6 of MLL3 (in words): ITC; for Kd: 20 mM Tris pH 7.5, 150 mM NaCl, 25 °C, protein 50–100 μM in cell, peptide 1–2 mM in syringe, single measurement, error from fitting curve; for ITC titration, Kd: Supplementary Fig. 4 and 7, MLL3_ePHD6, pH 7.5, 25 °C. An excerpt: (§1) The DNA fragments of MLL3 and MLL4 PHD domains (MLL3_ePHD6, residues 1055–1144 and residues 1075–1144; MLL3_PHD6, residues 1085–1144; MLL3_PHD5, residues 1009–1055; MLL3_PHD5-6, residues 1008–1144; MLL3_ePHD3, residues 436–525; MLL4_ePHD6, residues 1475–1564, and residues 1495–1564; MLL4_PHD6 residues 1505–1564 and MLL4_PHD5 residues 1429–1475) were subcloned into a modified pET28GST-LIC vector by T4 ligase-independent method (Clontech, 638920) to generate N-terminal GST, His-tagged fusion protein. The recombinant protein was overexpressed in E coli BL21 (DE3) Codon plus RIL (Stratagene) at 15 °C by induction with 0.25 mM IPTG at an OD600 of 0.8 and purified by affinity chromatography on Ni-nitrilotriacetate resin (Qiagen, 30250) followed by thrombin protease treatment to remove the tag. The protein was further purified by HiTrap Q HP column (GE Healthcare, 17115401) by using buffers with 20 mM Tris, pH 8.0, 1 mM DTT, 50 mM NaCl (low salt buffer) or 1 M NaCl (high salt buffer), and Superdex75 gel-filtration column (GE Healthcare, 28989333) by using a buffer containing 20 mM Tris, pH 7.5, 150 mM NaCl, 50 μM ZnCl2, and 1 mM DTT. For crystallization experiments, purified protein was concentrated to 5 mg mL^−1 in the same buffer as gel-filtration by using Amicon Ultra-15 Centrifugal Filter Units (Millipore Corporation, UFC901024).
(§2) For the ITC measurement, the concentrated proteins were diluted into 20 mM Tris, pH 7.5, 150 mM NaCl; the lyophilized peptides (Peptide 2.0 Inc.) were dissolved in the same buffer, and the pH value was adjusted by adding NaOH. Peptides concentrations were estimated from the mass. […] The protein with a concentration of 50–100 μM was placed in the cell chamber, and the peptides with a concentration of 1–2 mM in syringe was injected in 25 (19 for iTC-200) successive injections with a spacing of 180 s (150 s for iTC-200) and a reference power of 13 μcal s^−1 (6 μcal s^−1 for iTC-200). Control experiments were performed under identical conditions to determine the heat signals that arise from injection of the peptides into the buffer.

A further data set concerns the target T2, MLL4_(ePHD6)1475–1564 (Homo sapiens, UniProt O14686).
T2 construct: MLL4_ePHD6, residues 1475–1564, and residues 1495–1564; GST (N, cleaved yes); His (N, cleaved yes); made in house; host or cells: E. coli BL21 (DE3) Codon plus RIL
As to the kind of experiment: ITC binding of histone peptides to MLL4 ePHD6 (1475–1564). The note with it: for Kd / binding to ePHD6 of MLL4 (in words): ITC; for Kd: 20 mM Tris pH 7.5, 150 mM NaCl, 25 °C, protein 50–100 μM in cell, peptide 1–2 mM in syringe, single measurement, error from fitting curve; for ITC titration, Kd: Supplementary Fig. 4 and 7, MLL4_ePHD6, pH 7.5, 25 °C. Further details: key to ITC titration, Kd / Kd: NB: no detectable binding.
From the text: as §1, §2

Data set [2] has as its system fourth (PHD4), fifth (PHD5), and sixth (PHD6) PHD domains of MLL4. The note with it: peptide pull-down; histone H4 fragment containing the first 23 amino acids; ref [29]; cited from earlier work. An excerpt: (§3) Both MLL3 and MLL4 are multi-domain proteins, containing not only the catalytic SET domain but also a few other domains, including two clusters of PHD domains (Fig. 1a). […] The interaction between histone H4_1–23 and PHD6 do ...

A further data set has as its system PHD6 domain of MLL4. The note with it: ITC; ref [29]; cited from earlier work.
From the text: as §3

Data set [3] is described as follows: Gel filtration, oligomeric state in solution. Format: physicochemical. The note with it: Superdex200 10/300 GL, 20 mM Tris pH 7.5, 150 mM NaCl, 50 μM ZnCl2, 1 mM DTT. The procedure: Supplementary Fig. 3 Superimposition of gel-filtration curves of PHD6 and ePHD6 domains of MLL3 and MLL4. Gel filtration chromatography of MLL3 ePHD6 (red), PHD6 (pink), MLL4 ePHD6 (brown), PHD6 (green) and protein molecular weight standards (blue, Bio-Rad). Samples were loaded to the Superdex200 10/300 GL (GE Healthcare) column in the buffer containing 20 mM Tris, pH 7.5, 150 mM NaCl, 50 μM ZnCl2,and1mMDTT. […]

T2 sequence (O14686 1475-1564): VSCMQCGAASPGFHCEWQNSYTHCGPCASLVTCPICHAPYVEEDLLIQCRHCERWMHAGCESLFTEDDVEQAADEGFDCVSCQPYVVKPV

On to “1M: W1109A single point mutation of MLL3”, for which, in data set [1], the nucleosomal methyltransferase activity entry was “reduced the enzyme activity”. Still for that read-out and setting: with “2M: W1109A/E1120A double point mutation of MLL3” the entry was “reduced the enzyme activity”. As to “H3_1–20: histone H3 peptide, residues 1–20”, the Kd entry in the data set with MLL3_(ePHD6)1055–1144 and with MLL4_(ePHD6)1475–1564 was “NB” in each case.

On to “H4R3me0: histone H4 fragment containing the first 23 amino acids, unmethylated”, for which the “recognition by PHD4, PHD5 and PHD6 of MLL4” value in data set [2] is “able to recognize”. Consider “H4R3me2a: histone H4 fragment containing the first 23 amino acids, asymmetrically dimethylated on histone H4R3”, for which the “recognition by PHD4, PHD5 and PHD6 of MLL4” value in data set [2] is given as “able to recognize”. For the substance “H4_1–12: histone H4 peptide covering the first 12 residues”, in the data set with MLL3_(ePHD6)1055–1144, the “binding to ePHD6 of MLL3 (in words)” value is given as “neither MLL3 nor MLL4 displayed detectable binding” and the Kd entry is reported as “NB”. Also, in the data set with MLL4_(ePHD6)1475–1564, the “binding to ePHD6 of MLL4 (in words)” value is on record as “neither MLL3 nor MLL4 displayed detectable binding” and the Kd entry is “NB”. For the substance “H4_1–12R3me2a: histone H4 peptide covering the first 12 residues, asymmetrically methylated (H4R3me2a)”, the Kd result with MLL3_(ePHD6)1055–1144 and in the data set with MLL4_(ePHD6)1475–1564 was “NB” in each case. With “H4_1–23: histone H4 fragment containing the first 23 amino acids”, the “interaction with PHD6 domain” value in the data set with PHD6 domain of MLL4 was “confirmed”. Take “H41–24H18A: histone H4-derived mutant peptide”: the “ITC titration, Kd” value in the data set with MLL3_(ePHD6)1055–1144 and with MLL4_(ePHD6)1475–1564 was “NB” throughout. For the substance “H411–21H18A: histone H4-derived mutant peptide (GKGGAKRARKV; UniProt P62805 12-22, looked up, variant H18A)”, the “ITC titration, Kd” value with MLL3_(ePHD6)1055–1144 and in the data set with MLL4_(ePHD6)1475–1564 was “NB” each time. For the substance “H411–21K16A: histone H4-derived mutant peptide (GKGGAARHRKV; UniProt P62805 12-22, looked up, variant K16A)”, in the data set with MLL3_(ePHD6)1055–1144, the “binding to ePHD6 of MLL3 (in words)” value was “weakened the binding significantly” and the “ITC titration, Kd” value is given as “Weak binding”. For the same substance, in the data set with MLL4_(ePHD6)1475–1564, the “binding to ePHD6 of MLL4 (in words)” value was “weakened the binding significantly” and the “ITC titration, Kd” value was “Weak binding”. On to “H411–21R17A: histone H4-derived mutant peptide (GKGGAKAHRKV; UniProt P62805 12-22, looked up, variant R17A)”, for which the “ITC titration, Kd” value with MLL3_(ePHD6)1055–1144 and in the data set with MLL4_(ePHD6)1475–1564 was “NB” in each case.

Take “H411–21R19A: histone H4-derived mutant peptide (GKGGAKRHAKV; UniProt P62805 12-22, looked up, variant R19A)”: in the data set with MLL3_(ePHD6)1055–1144, the “binding to ePHD6 of MLL3 (in words)” value was “weakened the binding significantly” and the “ITC titration, Kd” value was “Weak binding”. Further, in the data set with MLL4_(ePHD6)1475–1564, the “binding to ePHD6 of MLL4 (in words)” value is “weakened the binding significantly” and the “ITC titration, Kd” value was “Weak binding”. Take “MLL3 PHD6: PHD6 domain of MLL3 (SSCPVCYRNYREEDLILQCRQCDRWMHAVCQNLNTEEEVENVADIGFDCSMCRPYMPASN; left off: GST, N-terminal, cleaved | His tag, N-terminal, cleaved)”: the “oligomeric state in solution” value in data set [3] is recorded as “monomer in solution”.

For “MLL4 PHD6: PHD6 domain of MLL4 (VTCPICHAPYVEEDLLIQCRHCERWMHAGCESLFTEDDVEQAADEGFDCVSCQPYVVKPV; left off: GST, N-terminal, cleaved | His tag, N-terminal, cleaved)”, in data set [3], the “oligomeric state in solution” value was “dimer in solution”.
